Source: PMC4889325

Molecular target: human haemoglobin (human)
Experiment: ITC; MicroCal iTC200; 250 μM TcHpHbR titrated into 18 μM Hb, 20 injections of 2 μl; 20 mM HEPES pH 7.5, 150 mM NaCl, 25°C

T. congolense haptoglobin-haemoglobin receptor (TcHpHbR), recombinant, as used in gel filtration and ITC
Kd: 3 nM | stoichiometry N (receptors per Hb tetramer): 2
